Patent US20220162305A1 (IMCHECK THERAPEUTICS, published 2022)

Key:
[1] = biological target: T1, human BTN2A1-CFP fusion protein expressed on HEK-293T BTN2 KO cells (human, UniProt Q7KYR7 29-527); assay: flow cytometry, MFI on CFP+ HEK-293T BTN2 KO cells transfected with BTN2A1-CFP, 5 ng/mL to 75 µg/mL mAb
T1 construct: not shown: CFP tag; printed as 'CFP(Nter)-fusion' and as 'BTN2A1-CFP'
T1 sequence: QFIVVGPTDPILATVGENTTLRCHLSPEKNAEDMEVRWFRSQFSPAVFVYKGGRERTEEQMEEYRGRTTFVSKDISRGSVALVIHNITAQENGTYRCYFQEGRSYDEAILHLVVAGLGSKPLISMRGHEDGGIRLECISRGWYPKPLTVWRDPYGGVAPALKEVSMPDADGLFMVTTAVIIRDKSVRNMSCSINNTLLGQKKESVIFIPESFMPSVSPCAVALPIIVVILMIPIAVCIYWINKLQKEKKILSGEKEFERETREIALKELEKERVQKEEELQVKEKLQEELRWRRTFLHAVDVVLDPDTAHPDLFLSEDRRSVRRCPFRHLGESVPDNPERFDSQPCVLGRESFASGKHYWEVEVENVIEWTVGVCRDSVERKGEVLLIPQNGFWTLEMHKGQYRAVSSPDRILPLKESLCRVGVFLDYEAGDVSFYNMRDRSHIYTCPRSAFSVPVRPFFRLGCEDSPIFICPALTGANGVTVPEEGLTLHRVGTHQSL

[2] = biological target: T2, recombinant human BTN2A1-Fc fusion protein (GTP Technologies) (human, UniProt Q7KYR7 29-248, biotinylated with EZ-Link NHS-PEG4 biotin for the Octet affinity assay (sites not given)); assay: BLI (Octet Red96), biotinylated rhBTN2A1-Fc on streptavidin sensors, chimeric mAb as analyte, 30 °C, 1:1 model
T2 construct: Bought soluble Fc fusion; Used biotinylated in Octet, unmodified in ELISA and cross-linking MS; also called rhBTN2A1-Fc; huBTN2A1-Fc; not shown: Fc part of the bought fusion protein
T2 sequence: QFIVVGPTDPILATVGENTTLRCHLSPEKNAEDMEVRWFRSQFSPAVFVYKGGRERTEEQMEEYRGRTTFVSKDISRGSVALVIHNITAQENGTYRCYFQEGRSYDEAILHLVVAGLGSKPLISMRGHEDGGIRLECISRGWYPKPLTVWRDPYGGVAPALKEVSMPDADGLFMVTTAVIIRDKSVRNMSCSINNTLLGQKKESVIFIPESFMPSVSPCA

[3] = biological target: T2, recombinant human BTN2A1-Fc fusion …; assay: ELISA, huBTN2A1-Fc coated at 5 µg/mL, mAb titrated, goat anti-mouse IgG HRP, absorbance at 405 nm
Description: For ELISA, cynoBTN2A1-Fc protein or recombinant human BTN2A1-Fc (huBTN2A1-Fc, GTP Technologies) were coated (5 μg/mL in 1×PBS) overnight at 4° C. After 3 washes in PBS, plates were saturated with BSA 2% v/v in PBS for 1 h at room temperature, then saturating buffer was discarded. […] All wells were washed 3 times in PBS before addition of Goat anti-mouse IgG HRP (Jackson ImmunoResearch, 1:10000 dilution in PBS BSA 2%) and incubation for 1 h at room temperature. […] All samples were assessed in duplicates.

[4] = biological target: T3, biotinylated recombinant human BTN2A2-Fc (R&D Systems) (human, UniProt Q8WVV5 33-265, limits assumed, biotinylated (sites not given)); assay: BLI (Octet Red96), chimeric mAb on FAB2G sensors, biotinylated rhBTN2A2-Fc as analyte
T3 construct: Bought soluble Fc fusion; also called rhBTN2A2-Fc; not shown: Fc part of the bought fusion protein
T3 sequence: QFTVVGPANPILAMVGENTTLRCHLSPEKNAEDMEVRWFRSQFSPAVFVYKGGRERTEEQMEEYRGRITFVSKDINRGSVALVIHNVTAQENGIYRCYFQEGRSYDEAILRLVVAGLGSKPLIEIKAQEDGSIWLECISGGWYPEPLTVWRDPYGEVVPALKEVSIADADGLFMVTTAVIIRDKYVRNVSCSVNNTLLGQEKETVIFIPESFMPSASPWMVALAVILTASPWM

[5] = biological target: T3, biotinylated recombinant human …; assay: BLI (Octet Red96), chimeric mAb on FAB2G sensors, biotinylated rhBTN2A2-Fc as analyte, 30 °C, 2:1 model
Description: After generation of the reference anti-BTN2A antibodies in chimeric IgG1 format, affinities for the 2 different isoforms of this target (BTN2A1 and BTN2A2) were evaluated and competition assays were performed to determine whether these mAbs recognized the same epitope region of BTN2A1. Affinity and binning experiments were performed on an Octet Red96 platform (Fortebio/PALL), system based on Bio-layer interferometry (BLI) technology. For affinity experiments, recombinant human (rh)BTN2A1-Fc (GTP) was biotinylated using EZ-Link™ NHS-PEG4 Biotinylation Kit according to manufacturer's instructions, and biotinylated rhBTN2A2-Fc was purchased from R&D Systems. […] For BTN2A2 affinity assays, chimeric anti-BTN2A antibodies were loaded into FAB2G sensors (anti human CH1; Fortebio) as described above, and biotinylated rhBTN2A2-Fc was used as analyte. In both cases, analytes remained in solution and their working concentrations were diluted in Kinetic Buffer 10× (ForteBio). […] All runs (including loading, equilibration, association/dipping of sensors into analyte, dissociation and regeneration) were performed at 30° C. with shaking 1000 rpm. Analysis was performed using a 1:1 or 2:1 Langmuir model (for BTN2A1 or BTN2A2, respectively) calculated by Octet software, which allowed a better fitting calculation.

B1: purified anti-BTN2A1 107G3 mAb (mouse hybridoma antibody) (antibody, V domains shown)
VH: QVQLKESGPGLVAPSQSLSITCTVSGFSLTNYVISWVRQPPGKGLEWLGVIWTGGDTNYNSALKSRLSISKDNSKSQVFLKMNSLQTGDTARYYCARGGQLGLRGYWGQGTLVTVSA
VL: DIVLTQSPASLAVSLGQRATISCRASKTVSSSGYSYMHWYQQKPGQPPKLLIYLASNLESGVPARFSGSGSGTDFTLNIHPVEEEDAATYYCQHSRDLPYAFGGGTKLEIK
notes: Mouse antibody purified from hybridoma; mouse IgG1 served as its isotype control; also called anti-BTN2A1 mAb 107G3
- EC50 [1]: 0.32 µg/mL

B2: chimeric anti-BTN2A mAb2 (107G3), chimeric IgG1 format (antibody, V domains shown)
VH: QVQLKESGPGLVAPSQSLSITCTVSGFSLTNYVISWVRQPPGKGLEWLGVIWTGGDTNYNSALKSRLSISKDNSKSQVFLKMNSLQTGDTARYYCARGGQLGLRGYWGQGTLVTVSA
VL: DIVLTQSPASLAVSLGQRATISCRASKTVSSSGYSYMHWYQQKPGQPPKLLIYLASNLESGVPARFSGSGSGTDFTLNIHPVEEEDAATYYCQHSRDLPYAFGGGTKLEIK
notes: Murine VH and VK cloned into heavy and light chain expression vectors, chimeric IgG1 (isotype control human IgG1), made in HEK-293 cells; also called anti-BTN2A 107G3
- Kd [2]: 0.41 nM
- EC50 [3]: 0.56 nM
- binding result [4]: no binding (tested: 200 nM)

B3: chimeric anti-BTN2A mAb1 (101G5), chimeric IgG1 format (antibody, V domains shown)
VH: EVQLQQSGPELVKPGASVKISCKASGYSFTVYYMLWVKQSPEKSLEWIGEINPSTGGTTYNQKFKAKATLTVDKSSSTAYMQLKSLTSEDSAVYYCARGPSFYALDYWGQGTSVTVSS
VL: EIVLTQSPTTMAASPGEKITITCSATSSISSNYLHWYRHKPGFSPKLLIYRTSNLASGVPGRFSGSGSGTSYSLTIGTMEAEDVATYYCQQGSSIPRTFGGGTKLEIK
notes: Chimeric IgG1 (isotype control human IgG1), made in HEK-293 cells; also called anti-BTN2A 101G5
- Kd [2]: 0.041 nM
- EC50 [3]: 0.82 nM
- Kd [5]: 4.4 nM
